From article PMC6344864 (Nucleic Acids Research, 2018) come the findings set out here.

For one data set, the target named is T1, Rdh54/Tid1 (Saccharomyces cerevisiae, UniProt P38086 1-958).
T1 sequence: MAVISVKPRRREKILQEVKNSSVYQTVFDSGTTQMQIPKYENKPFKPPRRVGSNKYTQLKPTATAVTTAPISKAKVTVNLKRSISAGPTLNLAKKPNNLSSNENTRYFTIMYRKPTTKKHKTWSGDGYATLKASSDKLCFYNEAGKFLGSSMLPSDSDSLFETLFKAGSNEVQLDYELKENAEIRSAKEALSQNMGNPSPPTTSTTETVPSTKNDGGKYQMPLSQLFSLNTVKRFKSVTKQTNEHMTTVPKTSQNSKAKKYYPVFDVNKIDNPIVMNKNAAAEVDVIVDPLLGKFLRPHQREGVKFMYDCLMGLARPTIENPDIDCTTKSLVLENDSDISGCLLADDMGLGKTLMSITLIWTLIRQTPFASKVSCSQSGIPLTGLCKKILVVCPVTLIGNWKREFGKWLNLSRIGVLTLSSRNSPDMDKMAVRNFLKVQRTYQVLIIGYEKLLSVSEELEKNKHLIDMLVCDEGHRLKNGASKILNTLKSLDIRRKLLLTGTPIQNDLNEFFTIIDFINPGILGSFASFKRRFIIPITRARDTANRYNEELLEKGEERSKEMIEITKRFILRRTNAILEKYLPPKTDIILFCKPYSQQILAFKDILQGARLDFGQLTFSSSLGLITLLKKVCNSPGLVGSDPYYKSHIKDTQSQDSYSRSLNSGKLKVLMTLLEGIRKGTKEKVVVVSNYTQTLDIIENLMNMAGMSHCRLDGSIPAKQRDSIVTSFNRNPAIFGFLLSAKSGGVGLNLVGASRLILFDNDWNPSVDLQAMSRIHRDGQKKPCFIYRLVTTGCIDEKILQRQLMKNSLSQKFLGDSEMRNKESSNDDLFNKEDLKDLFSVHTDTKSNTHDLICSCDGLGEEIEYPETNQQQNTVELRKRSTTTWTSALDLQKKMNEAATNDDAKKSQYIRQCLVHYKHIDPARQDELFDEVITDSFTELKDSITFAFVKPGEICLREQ
Description: fluorescence polarization. Background: Fluorescence polarisation rises when a labelled molecule tumbles more slowly, as on binding a larger partner.

The target of data set [1] is Replication protein A (RPA), Saccharomyces cerevisiae (Saccharomyces cerevisiae, UniProt P22336 1-621; P26754 1-273; P26755 1-122). Nature of the data set: pull-down.
Replication protein A (RPA), Saccharomyces cerevisiae, sequence (P22336 whole entry, chain 1 of 3): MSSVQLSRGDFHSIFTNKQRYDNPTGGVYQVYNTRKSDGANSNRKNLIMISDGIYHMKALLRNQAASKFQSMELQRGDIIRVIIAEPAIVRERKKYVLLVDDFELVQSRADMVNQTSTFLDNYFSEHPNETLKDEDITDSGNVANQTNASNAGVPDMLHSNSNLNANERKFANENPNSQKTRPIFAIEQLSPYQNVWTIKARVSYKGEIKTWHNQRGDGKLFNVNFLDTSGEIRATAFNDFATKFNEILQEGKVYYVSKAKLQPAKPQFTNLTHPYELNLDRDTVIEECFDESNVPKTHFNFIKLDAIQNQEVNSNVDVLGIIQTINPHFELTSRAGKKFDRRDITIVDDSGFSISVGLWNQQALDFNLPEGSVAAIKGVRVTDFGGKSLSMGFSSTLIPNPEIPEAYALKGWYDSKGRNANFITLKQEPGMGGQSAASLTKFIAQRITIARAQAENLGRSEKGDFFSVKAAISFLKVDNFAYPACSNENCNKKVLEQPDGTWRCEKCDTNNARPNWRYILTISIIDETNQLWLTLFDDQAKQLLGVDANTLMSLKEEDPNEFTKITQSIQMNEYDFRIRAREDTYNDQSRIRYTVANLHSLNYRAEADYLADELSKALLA
Replication protein A (RPA), Saccharomyces cerevisiae, sequence (P26754 whole entry, chain 2 of 3): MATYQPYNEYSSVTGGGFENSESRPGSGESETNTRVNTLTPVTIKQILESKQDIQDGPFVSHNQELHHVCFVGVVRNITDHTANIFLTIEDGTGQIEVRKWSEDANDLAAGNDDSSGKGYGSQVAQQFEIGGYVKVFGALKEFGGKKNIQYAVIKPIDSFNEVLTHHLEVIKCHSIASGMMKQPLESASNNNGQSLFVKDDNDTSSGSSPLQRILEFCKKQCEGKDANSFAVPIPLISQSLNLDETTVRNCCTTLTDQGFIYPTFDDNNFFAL
Replication protein A (RPA), Saccharomyces cerevisiae, sequence (P26755 whole entry, chain 3 of 3): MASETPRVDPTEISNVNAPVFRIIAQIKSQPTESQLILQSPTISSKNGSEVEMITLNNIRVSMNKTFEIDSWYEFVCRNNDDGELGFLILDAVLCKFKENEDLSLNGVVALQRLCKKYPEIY
Another data set deals with T2, His6-tagged Dmc1 (Saccharomyces cerevisiae, UniProt P25453 1-334).
T2 sequence (looked up): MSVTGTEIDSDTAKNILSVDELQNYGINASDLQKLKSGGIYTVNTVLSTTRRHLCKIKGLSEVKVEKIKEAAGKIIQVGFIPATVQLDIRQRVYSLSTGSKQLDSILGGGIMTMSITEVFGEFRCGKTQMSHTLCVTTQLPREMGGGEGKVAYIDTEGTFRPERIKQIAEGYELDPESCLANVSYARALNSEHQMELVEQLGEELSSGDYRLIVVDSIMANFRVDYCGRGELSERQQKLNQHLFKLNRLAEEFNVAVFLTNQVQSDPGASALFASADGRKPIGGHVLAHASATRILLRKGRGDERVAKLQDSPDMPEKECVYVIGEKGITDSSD
Nature of the data set: co-IP.

B1: 84-mer ssDNA (ssDNA)
DNA: GGTAGCGGTTGGGTGAGTGGTGGGGAGGGTCGGGAGGTGGCGTAGAAACATGATAGGAATGTGAATGAATGAAGTACAAGTAAA
Regarding B1, binding with Rdh54/Tid1 was characterised by a dissociation constant (Kd) of 230 nM.

B2: His6-tagged Mei5-Sae3 heterodimer (complex, Saccharomyces cerevisiae)
chain 1: MHNQEEWLDKDKTLVNEEENTCINHSYTKKDTNNYRVGKSGIKDLKKPTNQKEIAIKNRELTKQLTLLRQENNHLQQACKILSENKIIENRKSIEKWRTICEMELSFILNSTLIKINRMGGYKDFLEKEMEAKKRRLEYQIDNGMEDQICEIKESDDFRQLSEVEKQEWESQMNEQLKELEKKKIAELEKLNKVLHDSEGKDFGMAELCTRLKLDYSLIFPQ
chain 2: MNYLETQLNKKQKQIQEYESMNGNLIKMFEQLSKEKKNDETPKKISSTYIKELKEYNELRDAGLRLAQIIADEKQCKIKDVFEEIGYSMKD
Regarding B2, the binding result (in data set [1]; with His6-tagged Dmc1) was “binds” each time.
